Experimental data from paper PMC10786891, “Massively parallel profiling of RNA-targeting CRISPR-Cas13d”.
Substitutions are numbered along the chain they refer to. Names may count otherwise.

T1: EsCas13d, nuclease-dead (Eubacterium siraeum, UniProt B0MS50, R295A;H300A;R849A;H854A)
T1 sequence: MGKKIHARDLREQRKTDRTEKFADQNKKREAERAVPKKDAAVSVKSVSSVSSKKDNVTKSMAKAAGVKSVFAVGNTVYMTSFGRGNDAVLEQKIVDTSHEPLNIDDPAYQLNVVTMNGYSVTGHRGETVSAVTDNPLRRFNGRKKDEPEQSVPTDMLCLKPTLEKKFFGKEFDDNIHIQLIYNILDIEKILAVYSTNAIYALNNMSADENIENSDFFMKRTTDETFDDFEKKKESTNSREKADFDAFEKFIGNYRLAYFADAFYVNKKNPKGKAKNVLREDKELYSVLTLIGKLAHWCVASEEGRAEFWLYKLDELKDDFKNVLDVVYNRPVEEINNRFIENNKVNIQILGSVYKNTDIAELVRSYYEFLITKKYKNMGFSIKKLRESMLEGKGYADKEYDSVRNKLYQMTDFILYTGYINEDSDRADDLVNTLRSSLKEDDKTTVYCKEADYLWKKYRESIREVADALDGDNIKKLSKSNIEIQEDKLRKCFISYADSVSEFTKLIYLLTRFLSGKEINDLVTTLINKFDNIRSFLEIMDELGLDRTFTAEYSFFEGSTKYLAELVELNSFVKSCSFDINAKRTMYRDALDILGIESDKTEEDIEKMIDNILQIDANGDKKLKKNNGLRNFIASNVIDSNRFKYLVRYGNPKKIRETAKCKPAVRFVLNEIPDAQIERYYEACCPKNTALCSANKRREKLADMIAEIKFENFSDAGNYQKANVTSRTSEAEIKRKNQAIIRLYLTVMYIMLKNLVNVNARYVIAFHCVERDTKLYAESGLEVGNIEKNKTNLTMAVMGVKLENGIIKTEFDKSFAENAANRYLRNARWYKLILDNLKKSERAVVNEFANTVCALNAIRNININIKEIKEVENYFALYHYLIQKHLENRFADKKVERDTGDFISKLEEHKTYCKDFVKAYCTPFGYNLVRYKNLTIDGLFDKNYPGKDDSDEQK

B1: target 2 MT 5'PFS CAU 3'PFS UUA (mixed)
RNA 1: CACCCGUGCAAAAUUGCAGGGGUCUAAAACCUUCUCCAAAUUGUUUCAUCCU
RNA 2: GGGAAUGGAUCCACAUCUACGAAUUCCAUAGGAUGAAACAAUUUGGAGAAGUUAAGAUCGGAAGAGCACACGU
B2: target 2 MT 5'PFS UGU 3'PFS CUC (mixed)
RNA 1: B1 RNA 1
RNA 2: B1 RNA 2 with C27U, A28G, U52C, A54C
B3: target 2 MT 5'PFS UCA 3'PFS ACG (mixed)
RNA 1: B1 RNA 1
RNA 2: B1 RNA 2 with C27U, A28C, U29A, U52A, U53C, A54G
B4: target 2 MT 5'PFS GCG 3'PFS AUU (mixed)
RNA 1: B1 RNA 1
RNA 2: B1 RNA 2 with C27G, A28C, U29G, U52A, A54U
B5: target 2 MT 5'PFS CUG 3'PFS CUG (mixed)
RNA 1: B1 RNA 1
RNA 2: B1 RNA 2 with A28U, U29G, U52C, A54G
B6: target 2 MT 5'PFS UAU 3'PFS GAU (mixed)
RNA 1: B1 RNA 1
RNA 2: B1 RNA 2 with C27U, U52G, U53A, A54U
B7: target 2 MT 5'PFS GAA 3'PFS CUC (mixed)
RNA 1: B1 RNA 1
RNA 2: B1 RNA 2 with C27G, U29A, U52C, A54C
B8: target 2 MT 5'PFS GUC 3'PFS UAG (mixed)
RNA 1: B1 RNA 1
RNA 2: B1 RNA 2 with C27G, A28U, U29C, U53A, A54G
B9: target 2 MT 5'PFS GAA 3'PFS CUG (mixed)
RNA 1: B1 RNA 1
RNA 2: B1 RNA 2 with C27G, U29A, U52C, A54G
B10: target 2 MT 5'PFS GCA 3'PFS UCA (mixed)
RNA 1: B1 RNA 1
RNA 2: B1 RNA 2 with C27G, A28C, U29A, U53C
B11: target 2 MT 5'PFS CUG 3'PFS CUA (mixed)
RNA 1: B1 RNA 1
RNA 2: B1 RNA 2 with A28U, U29G, U52C
B12: target 2 MT 5'PFS ACC 3'PFS CAU (mixed)
RNA 1: B1 RNA 1
RNA 2: B1 RNA 2 with C27A, A28C, U29C, U52C, U53A, A54U
B13: target 2 MT 5'PFS UGG 3'PFS AGC (mixed)
RNA 1: B1 RNA 1
RNA 2: B1 RNA 2 with C27U, A28G, U29G, U52A, U53G, A54C
B14: target 2 MT 5'PFS GUC 3'PFS UAA (mixed)
RNA 1: B1 RNA 1
RNA 2: B1 RNA 2 with C27G, A28U, U29C, U53A
B15: target 2 MT 5'PFS UCA 3'PFS ACA (mixed)
RNA 1: B1 RNA 1
RNA 2: B1 RNA 2 with C27U, A28C, U29A, U52A, U53C
B16: target 2 MT 5'PFS GUC 3'PFS UAU (mixed)
RNA 1: B1 RNA 1
RNA 2: B1 RNA 2 with C27G, A28U, U29C, U53A, A54U
B17: target 2 MT 5'PFS UCA 3'PFS CAU (mixed)
RNA 1: B1 RNA 1
RNA 2: B1 RNA 2 with C27U, A28C, U29A, U52C, U53A, A54U
B18: target 2 MT 5'PFS ACC 3'PFS CAC (mixed)
RNA 1: B1 RNA 1
RNA 2: B1 RNA 2 with C27A, A28C, U29C, U52C, U53A, A54C
B19: target 2 MT 5'PFS UGG 3'PFS AGU (mixed)
RNA 1: B1 RNA 1
RNA 2: B1 RNA 2 with C27U, A28G, U29G, U52A, U53G, A54U
B20: target 2 MT 5'PFS UCA 3'PFS CAG (mixed)
RNA 1: B1 RNA 1
RNA 2: B1 RNA 2 with C27U, A28C, U29A, U52C, U53A, A54G
B21: target 2 MT 5'PFS GAA 3'PFS CUU (mixed)
RNA 1: B1 RNA 1
RNA 2: B1 RNA 2 with C27G, U29A, U52C, A54U
B22: target 2 MT 5'PFS CAU 3'PFS UUU (mixed)
RNA 1: B1 RNA 1
RNA 2: B1 RNA 2 with A54U
B23: target 2 MT 5'PFS CUG 3'PFS CUC (mixed)
RNA 1: B1 RNA 1
RNA 2: B1 RNA 2 with A28U, U29G, U52C, A54C
B24: target 2 MT 5'PFS GUC 3'PFS UAC (mixed)
RNA 1: B1 RNA 1
RNA 2: B1 RNA 2 with C27G, A28U, U29C, U53A, A54C
B25: target 2 MT 5'PFS ACA 3'PFS UCA (mixed)
RNA 1: B1 RNA 1
RNA 2: B1 RNA 2 with C27A, A28C, U29A, U53C
B26: target 2 MT 5'PFS CUG 3'PFS CUU (mixed)
RNA 1: B1 RNA 1
RNA 2: B1 RNA 2 with A28U, U29G, U52C, A54U
B27: target 2 MT 5'PFS CAU 3'PFS UUC (mixed)
RNA 1: B1 RNA 1
RNA 2: B1 RNA 2 with A54C
B28: target 2 MT 5'PFS GAA 3'PFS CUA (mixed)
RNA 1: B1 RNA 1
RNA 2: B1 RNA 2 with C27G, U29A, U52C
B29: target 2 MT 5'PFS UCA 3'PFS ACU (mixed)
RNA 1: B1 RNA 1
RNA 2: B1 RNA 2 with C27U, A28C, U29A, U52A, U53C, A54U
B30: target 2 MT 5'PFS UCA 3'PFS ACC (mixed)
RNA 1: B1 RNA 1
RNA 2: B1 RNA 2 with C27U, A28C, U29A, U52A, U53C, A54C
B31: target 2 MT 5'PFS UGU 3'PFS CUU (mixed)
RNA 1: B1 RNA 1
RNA 2: B1 RNA 2 with C27U, A28G, U52C, A54U
B32: target 2 MT 5'PFS UCU 3'PFS UUG (mixed)
RNA 1: B1 RNA 1
RNA 2: B1 RNA 2 with C27U, A28C, A54G
B33: target 2 MT 5'PFS UCA 3'PFS CAA (mixed)
RNA 1: B1 RNA 1
RNA 2: B1 RNA 2 with C27U, A28C, U29A, U52C, U53A
B34: target 2 MT 5'PFS UGG 3'PFS CAC (mixed)
RNA 1: B1 RNA 1
RNA 2: B1 RNA 2 with C27U, A28G, U29G, U52C, U53A, A54C
B35: target 2 MT 5'PFS UGU 3'PFS CUA (mixed)
RNA 1: B1 RNA 1
RNA 2: B1 RNA 2 with C27U, A28G, U52C
B36: target 1 A9G,C22A (mixed)
RNA 1: CACCCGUGCAAAAAUGCAGGGGUCUAAAACUGAGCGGAUAACCUCUCUAUGG
RNA 2: GGGAAUGGAUCCACAUCUACGAAUUCGUAACAUAGAGAGGUUGUCCGCUCACCGAGAUCGGAAGAGCACACGU
B37: target 1 insG 3' of 14,insC 3' of 3 (mixed)
RNA 1: B36 RNA 1
RNA 2: GGGAAUGGAUCCACAUCUACGAAUUCGUACCAUAGAGAGGGUUAUCCGCUCCACCGAGAUCGGAAGAGCACACGU
B38: target 1 U10C,A14G (mixed)
RNA 1: B36 RNA 1
RNA 2: B36 RNA 2 with A30C, A38G, U42C, G43A

The binders below were run against T1, EsCas13d, nuclease-dead (assay: crRNA (strand 1, pre-loaded); Mg2+; 40 mM Tris-HCl pH 7.5, 150 mM NaCl, 6 mM MgCl2, 1 mM DTT, 0.1% Tween-20, 0.2 mg/ml BSA; 25 C; 10 min per concentration, then washed). Settings: tags: His6-TwinStrep-SUMO cleaved; N-terminal SNAP kept (SNAP-Surface 488); label: 3' end held by stalled T7 RNA polymerase.

Binder	Kd
B1	5.2 ± 0.9 nM
B2	~50 nM
B3	3.6 ± 0.6 nM
B4	12.6 ± 2 nM
B5	2.67 ± 0.23 nM
B6	~44 nM
B7	16 ± 4 nM
B8	14 ± 2 nM
B9	11.2 ± 1.4 nM
B10	10.9 ± 2.1 nM
B11	3.2 ± 0.4 nM
B12	10 ± 4 nM
B13	6 ± 0.9 nM
B14	9.3 ± 1.4 nM
B15	3.6 ± 0.5 nM
B16	18 ± 5 nM
B17	4.8 ± 1.1 nM
B18	7.4 ± 1.6 nM
B19	8 ± 0.8 nM

Binder	Kd
B20	3.1 ± 0.4 nM
B21	15.1 ± 2.7 nM
B22	6.2 ± 0.7 nM
B23	5.7 ± 0.6 nM
B24	15.3 ± 2.4 nM
B25	8.7 ± 3.2 nM
B26	3.55 ± 0.34 nM
B27	9.1 ± 1.6 nM
B28	6.9 ± 1.1 nM
B29	7 ± 1.4 nM
B30	13.6 ± 3.1 nM
B31	14.6 ± 2 nM
B32	16.9 ± 2.8 nM
B33	5.3 ± 1.2 nM
B34	15.3 ± 2.5 nM
B35	12.9 ± 2 nM
B36	21.9 ± 1.3 nM
B37	10.5 ± 0.9 nM
B38	34.1 ± 2.8 nM
